Data on one molecule can be found in patent US20050272107A1 (MEDICAL RESEARCH COUNCIL, published 2005).

As usually defined, the Kd is the free concentration of one partner at which half of the binding sites on the other are occupied at equilibrium, for simple one-to-one binding. Read a low Kd as higher affinity. Broadly, the koff is a measure of how fast the partners let go of each other. Read a low koff as a long-lived complex. The term kon denotes a measure of how fast the partners come together. Higher therefore signals fast association.

In assay [1] the target is RAS antigen of the BIAcore measurements. Put plainly: SPR, BIAcore 2000; Kd = koff/kon. On the technique in general: SPR reads the build-up and loss of mass on a sensor chip optically.
Assay [2] shares this target. Put plainly: SPR, BIAcore 2000.

B1: anti-RAS scFv33 (scFv)
chain: QVQLVEAGGGLVQPGGSLRLSCAASGFSFSTFSMNWVRQAPGKGLEWVSYISSSGRTIYYADSVKGRFTISRDNAKNSLYLQMNSLRDEDTAVYYCARGRFFDYWGQGTLVTVSSGGGGSGGGGSGGGGSDIVMTQSPSFLSASVGDRVTITCRASQSISRYLNWYQQKPGKAPKLLIYAASSLQSGVPSRFSGSGSGTDFTLTISSLQPEDFAIYYCQQSYSTLLTFGGGTKLEIKR
B1 showed a dissociation constant (Kd) in assay [1] of 9.97 nM. Moreover, in assay [2], the koff is 0.00113 s⁻¹ and the kon came out at 176000 M⁻¹ s⁻¹.
